The assay has as its target OVA257-264 (SIINFEKL) presented by H-2Kb on dendritic cells (chicken; mouse). Kind of assay: cell-based or functional assay.

With “OT-1 T cell receptor (TCR of OT-1 TCR transgenic mice, specific for the OVA257-264 epitope)”, the proliferating CD8+ T cells (CFSE dilution), BMDCs loaded with ZEBRA-OVA257-264 after maturation came out at 70%; the proliferating CD8+ T cells (CFSE dilution), BMDCs loaded with ZEBRA-OVA257-264 before maturation stood at 69%; the proliferating CD8+ T cells (CFSE dilution, 5 days), DCs loaded with ZEBRA-OVA257-264 came to 81%; the proliferating CD8+ T cells (CFSE dilution, 5 days), DCs pulsed with 10 uM Ova peptide (positive control) was determined as 93%.

The record behind these values is patent publication US20160031946A1.
